Data from paper doi:10.1101/2024.06.23.600241 (bioRxiv, 2024).

How the values were obtained:
[1] = biological target: T1, Plasmodium vivax Duffy binding protein region II (PvDBP-RII) (Plasmodium vivax Salvador I (strain as …, UniProt P22290)); test: SPR; Biacore T200; DB9 captured on a CM5 chip amine-coupled with protein A/G; analytes flowed in a two-fold dilution series from 1 μM; 20mM HEPES pH 7.4, 150mM NaCl, 0.005% Tween-20; conditions: both partners purified
T1 construct: The tag and its TEV cleavage hold only if the pET15b construct was the one used; SalI is named only for the transgenic parasites; also called RII region of PvDBP; source: the same paragraph also says cloned into modified pET15b, expressed in E. coli BL21-DE3; not shown: His-tag, N-terminal, cleaved

PvDBP-RII subdomain 3 [2] = biological target: T2, PvDBP-RII subdomain 3 (Plasmodium vivax Salvador I, UniProt P22290); test: as above; conditions: both partners purified
T2 construct: also called SD3; not shown: His-tag, N-terminal, cleaved

PvDBP-RII subdomain 3 [3] = biological target: T3, PvDBP-RII subdomain 3 (Plasmodium vivax, UniProt P22290 211-508); test: SPR
T3 chain: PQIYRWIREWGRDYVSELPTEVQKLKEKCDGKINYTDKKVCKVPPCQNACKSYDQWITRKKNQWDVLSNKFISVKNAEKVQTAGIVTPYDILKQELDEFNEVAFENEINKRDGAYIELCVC

[4] = biological target: T4, Plasmodium vivax Duffy binding protein region II (PvDBP-RII) (Plasmodium vivax, UniProt P22290 211-508); test: SPR
T4 chain: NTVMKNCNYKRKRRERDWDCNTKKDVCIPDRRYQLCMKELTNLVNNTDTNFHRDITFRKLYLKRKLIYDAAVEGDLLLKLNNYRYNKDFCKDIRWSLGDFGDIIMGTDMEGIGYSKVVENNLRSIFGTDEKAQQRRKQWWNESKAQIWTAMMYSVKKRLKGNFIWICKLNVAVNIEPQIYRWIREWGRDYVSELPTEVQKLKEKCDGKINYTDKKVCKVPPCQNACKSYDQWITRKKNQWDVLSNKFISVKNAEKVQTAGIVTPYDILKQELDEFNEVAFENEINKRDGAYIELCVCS

B1: monoclonal antibody DB9 (antibody, V domains shown)
VH: EVQLQESGPGLVKPSETLSLTCTVSGGSVSSSTYYWGWVRQPPGKGLEWIGSIYYSGSTYYNPSLKSRVTISVDTSKNQFSLKLSSVTAADTAVYYCARDGTGALDLWGRGTLVTVSS
VL: DIVMTQSPSTLSASVGDRVTITCRASQSISSWLAWYQQRPGKAPRLLIYKASSLLSGVPSRFGGSGSGTDFTLTISSLQPDDFATYHCQHYNTYPWTFGQGTKVEIK
notes: the Fab part of the heavy chain is in PDB 6R2S and PDB 9EZE; the light chain is in PDB 6R2S and PDB 9EZE
With B1 as the binder, how does the Kd [1] read?
The Kd was 2.63 nM.

And the Kd (PvDBP-RII subdomain 3 [2])?
The Kd was 1.11 nM.

And the koff (PvDBP-RII subdomain 3 [3])?
Its koff is 0.00172 s⁻¹.

What about the koff [4] of the same binder?
The koff was 0.000976 s⁻¹.
